Assay results taken from patent US11938195B2, “Upconversion nanoparticle peptide conjugates” (BP InnoMed Limited, priority 2021, dated 2024).
Where a SMILES comes first, the peptide text is derived from it. Where no end group is shown, it is not given here. [ ]: non-standard residue; d: D form. Ahx = NCCCCCC(=O)O

Legend:
p65 [1] = experiment: Western blot of p65 (NF-κB) in C666 cells; assay type: cell-based
Source text: (§1) NF-κB signaling pathway is critical for the survival of EBV-infected tumor cells. Here we investigated if our nanoprobes could affect this oncogenic pathway. EBV-positive LCL3 and C666 cells were used as models, EBV-negative HK1 cells were used as control and Western blot was used to analyze the protein expression of p65, a major transcription factor in the NF-κB family. […] GAPDH and Histone are regarded as internal standards in cytosolic and nuclear fractions, respectively. […] This is consistent with the cellular uptake results.
(§2) Western blotting: EBV-positive C666, LCL3 and EBV-negative HK1 cell pellets were treated with phosphatase and protease inhibitors at 0-4° C. for 30 min. The total protein concentrations were calculated by protein absorbance. The protein was resolved by sodium dodecyl sulfate-polyacrylamide gel electrophoresis (SDS-PAGE) and transferred to cellulose filter membranes. The membranes were blocked with 3% BSA in Tris-buffered saline in 0.1% Tween 20 (TBST) for 1 h with gentle shaking and subsequently incubated with primary antibodies (1:1000) in 3% BSA in TBST at 4° C. for overnight. After rinsing with TBST buffer three times, the blots were then incubated with corresponding secondary anti-rabbit antibody (1:6000) for 1 h. After that, the blots were rinsed again with 3% BSA in TBST for 1 h shaking at room temperature. Lastly, the density of bands was determined by image analysis system after washing with TBST buffer three times.

EBV-positive C666 cells [2] = experiment: MTT cytotoxicity assay, C666 cells; details: 24 h
Experimental: The inhibitory effects of the novel nanoprobes on both EBV-infected cancer cells and non-EBV-infected cancer cells were investigated by MTT assays to test the cell viability. The cytotoxic assays were performed in EBV-positive C666 and NPC43 cells, LMP1-positive LCL3 and Raji cells, and the LMP1-positive and -negative HK1 cell pair. HK1, MRC-5 and HeLa cell lines are EBV-negative and they serve as negative controls. […] In addition, UCNP-P4, EBNA1-specific peptide coated UCNPs was included as control group, so the ability of inhibiting EBV-related cancer cells can be directly compared with UCNP-Pn [n=5, 6 and 7 (SEQ ID NO: 5, 6, 7)].
In vitro cytotoxic assays: The cytotoxicity of our nanoprobes was determined by MTT reduction assay. The cells (3×10^3 per well) were seeded onto 96-well plates and incubated overnight, followed by treatment with Pn [n=5, 6 and 7 (SEQ ID NO: 5, 6, 7)], UCNP, UCNP-Pn [n=5, 6 and 7 (SEQ ID NO: 5, 6, 7)] and UCNP-P4 individually at 37° C., 5% CO2 for 24 h in dark. The cell monolayers were rinsed with PBS and 50 μL of MTT, 3-(4,5-dimethylthiazol-2-yl)-2,5-diphenyltetrazolium bromide solution (0.5 mg mL^−1) was added per well and the cells were further incubated for 3 h at 37° C. The solution was subsequently discarded, and the formazan crystals were dissolved in 100 μL of DMSO per well under shaking. The absorptions of the formazan crystal solutions at 540 nm and 690 nm were measured using a dual-wavelength Labsystem Multiskan microplate reader (Merck Eurolab).

p65 [3] = experiment: Western blot of p65 (NF-κB) in LCL3 cells; assay type: cell-based
Source text: as §1, §2

C666 derived xenografts = experiment: In vivo suppression assay, C666 xenograft; details: for Effect on average tumor size: 12.5 mg/kg, intravenous (tail vein), twice a week, 33 days; for Body weight: C666 tumor-bearing mice, 33-day experimental period
Source text: To determine the antitumor efficacy of the new nanoprobes in vivo, their therapeutic effects were investigated in C666 and HeLa derived xenografts in BALB/c nude mice. The mice were randomly divided into five groups: (1) control (PBS), (2) UCNP, (3) UCNP-P5, (4) UCNP-P6, (5) UCNP-P7. In order to recapitulate the clinical setting of drug delivery, intravenous injection (via a tail vein) was used to deliver these agents to the immunocompromised animal.
In vivo suppression assays: EBV-positive C666 and EBV-negative HeLa cells were suspended in 200 μL of serum-free RMPI 1640 and DMEM respectively. Female BALB/c nude mice (6-8 weeks) which obtained from HKU were then injected with the cells in the right flank. Intravenous injections were performed when the average tumor volumes reached ˜200 mm^3. 0.25 mg/tumor dose of UCNP and UCNP-Pn [n=5, 6 and 7 (SEQ ID NO: 5, 6, 7)] in […] PBS buffer were injected through tail vein of mice using a 24-gauge syringe. Mice injected with the same volume of PBS buffer served as control. The body weight and tumor volumes of the mice were measured three times per week; in which the latter is calculated by (L×W^2)/2, where L and W are the longer and shorter tumor dimensions respectively. Intravenous injection at the tail vein were performed twice a week and the mice were sacrificed after 33-day experimental period; the tumors were extracted and weighed. The treatment groups are unknown to the investigators for the experimental and data analysis processes. The animal experiments conducted were approved by the Department of Health of the HKSAR Government. All animal procedures are within the Guidelines for Care and Use of Laboratory Animals of HKBU and approved by the Animal Ethics Committee of HKBU.
Hematoxylin and eosin (H&E) staining: In general, the transplanted C666 and HeLa derived tumor tissues were collected and fixed with formalin, followed by embedding in paraffin. The histologic sections were then stained with hematoxylin and eosin. Other major organ tissues (heart, liver, spleen, lung, kidney, brain) were conducted in the same procedures.

EBV-positive C666 cells [4] = experiment: Two-photon confocal imaging, C666; assay type: cell-based; details: mainly from the nuclei, 24 h incubation
Experimental: After the study of cellular uptake, fluorescent confocal microscopy was used to study the sub-cellular localization with the same set of EBV-/LMP1-positive and -negative cell lines. All these cell lines were treated with as-prepared samples for different time intervals of 1 h, 3 h, 6 h, 12 h and 24 h. Fluorescence signals in the cells were imaged under 980 nm excitation.
The cells were then co-stained with 0.05 mM nuclear dye DRAQ5 for 0.5 h for confocal imaging with a Leica SP8 confocal microscope equipped with a coherent femtosecond laser (690-1050 nm), argon laser (432 nm, 457 nm and 488 nm), He—Ne laser (632 nm), UV lamp. A stage-top cell culture chamber was also used to maintain the atmospheric conditions of 2-7% CO2 and a temperature of 37° C.

[5] = biological target: EBNA1 (DNA-binding domain fragment of a.a.468-607) (Epstein-Barr virus, UniProt P03211); experiment: EBNA1 dimerization/oligomerization inhibition assay; assay type: biochemical; details: 0.3 mg/mL nanoprobe, 90 mg EBNA1, DSS crosslinking, SDS gel
EBNA1 (DNA-binding domain fragment of a.a.468-607), sequence (P03211 468-607): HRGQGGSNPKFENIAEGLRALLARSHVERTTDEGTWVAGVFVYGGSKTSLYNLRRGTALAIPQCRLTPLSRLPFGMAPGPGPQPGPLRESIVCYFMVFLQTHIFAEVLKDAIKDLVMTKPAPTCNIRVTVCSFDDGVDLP
Experimental: EBNA1 dimerization/oligomerization inhibition assays were performed to reveal the ability of interrupting EBNA1 dimerization/oligomerization in the presence of the previous nanoprobe UCNP-P4 and the nanoplatforms in situ.
(conc.: 0.3 mg/mL) at 4° C. overnight. Then, 2 mM disuccinimidyl suberate (DSS) was added to allow the samples to undergo crosslinking reaction at room temperature for 30 min. The samples were run and separated on an SDS-denaturing gel and proteins were detected using Coomassie Blue staining. PBS buffer was used as control group.

[6] = Peptide release from nanoprobes under various time intervals (UV-vis absorbance); assay type: physicochemical; details: 0.5 mg/mL
Source text: The stability and capability of cleavage of the pH linker were also studied. […] More importantly, TEM images of UCNP-P5 at different pH buffers were observed and investigated in FIG. 1, providing direct evidence on pH-responsive peptide release from UCNP.

[7] = Peptide release from nanoprobes under various pH buffers (UV-vis absorbance); assay type: physicochemical; details: 24 h in buffer, 0.5 mg/mL
Source text: The stability and capability of cleavage of the pH linker were also studied. […] More importantly, TEM images of UCNP-P5 at different pH buffers were observed and investigated in FIG. 1, providing direct evidence on pH-responsive peptide release from UCNP. […]

CSCC[C@H](NC(=O)[C@H](Cc1ccccc1)NC(=O)[C@H](Cc1ccc(O)cc1)NC(=O)CCCCCN)C(=O)N[C@H](C(=O)N[C@@H](Cc1ccccc1)C(=O)NCC(=O)NCC(=O)N[C@@H](CCCNC(=N)N)C(=O)N[C@H](CCCNC(=N)N)C(=O)N[C@@H](CCCNC(=N)N)C(=O)N[C@@H](CCCCN)C(=O)NCC(=O)NCC(=O)N[C@@H](Cc1ccccc1)C(=O)N[C@@H](Cc1c[nH]c2ccccc12)C(=O)N[C@@H](CC(C)C)C(=O)N[C@@H](Cc1ccc(O)cc1)C(=O)O)C(C)C [P5, -Ahx-YFMVFGGRrRKGGFWLY (SEQ ID NO:5)] (H-[Ahx]YFMVFGGR[dR]RKGGFWLY-OH; C-terminus assumed)
Decreased p65 expression, nuclear fraction (p65 [1]): 89%
Cytotoxicity of free peptides (MTT cell viability) (EBV-positive C666 cells [2]): capable of selectively targeting and killing EBV-infected cells
Decreased p65 expression, nuclear fraction (p65 [3]): 86%

CSCC[C@H](NC(=O)[C@H](Cc1ccccc1)NC(=O)[C@H](Cc1ccc(O)cc1)NC(=O)CNC(=O)CNC(=O)[C@H](CCCCN)NC(=O)[C@H](CCCNC(=N)N)NC(=O)[C@@H](CCCNC(=N)N)NC(=O)[C@H](CCCNC(=N)N)NC(=O)CCCCCN)C(=O)N[C@H](C(=O)N[C@@H](Cc1ccccc1)C(=O)NCC(=O)NCC(=O)N[C@@H](Cc1ccccc1)C(=O)N[C@@H](Cc1c[nH]c2ccccc12)C(=O)N[C@@H](CC(C)C)C(=O)N[C@@H](Cc1ccc(O)cc1)C(=O)O)C(C)C [P6, -Ahx-RrRKGGYFMVFGGFWLY (SEQ ID NO:6)] (H-[Ahx]R[dR]RKGGYFMVFGGFWLY-OH; C-terminus assumed)
Cytotoxicity of free peptides (MTT cell viability) (EBV-positive C666 cells [2]): capable of selectively targeting and killing EBV-infected cells

CSCC[C@H](NC(=O)[C@H](Cc1ccccc1)NC(=O)[C@H](Cc1ccc(O)cc1)NC(=O)CNC(=O)CNC(=O)[C@H](CCCCN)NC(=O)[C@H](CCCNC(=N)N)NC(=O)[C@@H](CCCNC(=N)N)NC(=O)[C@H](CCCNC(=N)N)NC(=O)CNC(=O)CNC(=O)[C@H](Cc1ccc(O)cc1)NC(=O)[C@H](CC(C)C)NC(=O)[C@H](Cc1c[nH]c2ccccc12)NC(=O)[C@H](Cc1ccccc1)NC(=O)CCCCCN)C(=O)N[C@H](C(=O)N[C@@H](Cc1ccccc1)C(=O)O)C(C)C [P7, -Ahx-FWLYGGRrRKGGYFMVF (SEQ ID NO:7)] (H-[Ahx]FWLYGGR[dR]RKGGYFMVF-OH)
Cytotoxicity of free peptides (MTT cell viability) (EBV-positive C666 cells [2]): capable of selectively targeting and killing EBV-infected cells

NaGdF4:Yb^3+, Er^3+@NaGdF4 [UCNP, reference compound]
Tumor uptake (ICP-MS biodistribution) (C666 derived xenografts; mouse, in vivo): nearly undetectable in the tumor

UCNP-P6: UCNP is NaGdF4:Yb^3+, Er^3+@NaGdF4 and the plurality of polypeptides is Ahx-RrRKGGYFMVFGGFWLY (SEQ ID NO: 6) ([Ahx]R[dR]RKGGYFMVFGGFWLY; also: UCNP conjugate)
Responsive emission enhancement (lambda scan) (EBV-positive C666 cells [4]): two-fold
Inhibition of EBNA1 dimerization/oligomerization [5]: eradicate all 90 mg EBNA1 dimers and oligomers
Effect on average tumor size (C666 derived xenografts): no obvious effect on the tumor size
Body weight (C666 derived xenografts): slight reduction of body weight
Peptide release rate ([6]; 1 h): 0%
Peptide release rate ([6]; 3 h): 0%
Peptide release rate ([6]; 6 h): 0.3%
Peptide release rate ([6]; 12 h): 0.8%
Peptide release rate ([6]; 24 h): 1.4%
Peptide release rate ([6]; 3 day): 1.9%
Peptide release rate ([6]; 5 day): 2.9%
Peptide release rate ([6]; 7 day): 5.9%
Reduced p65 expression level, cytosolic fraction (p65 [1]): 87%
Peptide release rate ([7]; pH 5.0): 83.3%
Peptide release rate ([7]; pH 5.5): 34.1%
Peptide release rate ([7]; pH 6.0): 32.2%
Peptide release rate ([7]; pH 6.5): 21.5%
Peptide release rate ([7]; pH 7.0): 4.6%
Peptide release rate ([7]; pH 7.4): 0%
Reduced p65 expression level, cytosolic fraction (p65 [3]): 85%

UCNP-P7: UCNP is NaGdF4:Yb^3+, Er^3+@NaGdF4 and the plurality of polypeptides is Ahx-FWLYGGRrRKGGYFMVF (SEQ ID NO: 7) ([Ahx]FWLYGGR[dR]RKGGYFMVF; also: UCNP conjugate)
Responsive emission enhancement (lambda scan) (EBV-positive C666 cells [4]): two-fold
Effect on average tumor size (C666 derived xenografts): no obvious effect on the tumor size
Body weight (C666 derived xenografts): slight reduction of body weight
Peptide release rate ([6]; 1 h): 0%
Peptide release rate ([6]; 3 h): 0%
Peptide release rate ([6]; 6 h): 0.2%
Peptide release rate ([6]; 12 h): 0.7%
Peptide release rate ([6]; 24 h): 1.0%
Peptide release rate ([6]; 3 day): 1.6%
Peptide release rate ([6]; 7 day): 2.6%
Peptide release rate ([7]; pH 5.0): 81.2%
Peptide release rate ([7]; pH 5.5): 58.5%
Peptide release rate ([7]; pH 6.0): 48.2%
Peptide release rate ([7]; pH 6.5): 36.1%
Peptide release rate ([7]; pH 7.0): 7.4%
Peptide release rate ([7]; pH 7.4): 0%
